The Kd is the constant that tells how readily two partners part at equilibrium. A low value points to tighter binding.

Assay [1] deals with T1, Human FcRn (soluble human neonatal Fc receptor) (human, UniProt P55899 24-290; P61769 21-119, limits assumed).
T1 construct: also called soluble human FcRn
Put plainly: SPR (BIAcore 3000), Fc amine-coupled to CM5 chip, soluble human FcRn 1.46 nM to 3 uM, steady-state binding isotherm, PBS pH 6.0 with 0.05% Tween 20, 25 C; error is SD of 2 experiments. The text has this: (§1) The interaction of soluble human FcRn with immobilized unmutated human Fc and Fc/YTE was monitored by surface plasmon resonance detection using a BIAcore 3000 instrument (GE Healthcare, Piscataway, N.J.). Unmutated human Fc and Fc/YTE were first coupled to the dextran matrix of a CM5 sensor chip (GE Healthcare) using an Amine Coupling Kit at a surface density of between 4139 and 4291 RU according to the manufacturer's instructions. Human FcRn was used in equilibrium binding experiments at concentrations ranging from 1.46 nM to 3 uM at a flow rate of 5 uL/min. Dilutions and binding experiments were carried out at 25° C. in phosphate buffered saline (PBS), pH 6.0 containing 0.05% Tween 20. Steady-state binding data were collected for 50 min. Both Fc surfaces were regenerated with six 1-min injection of PBS, pH 7.4 containing 0.05% Tween 20. Human FcRn was also allowed to flow over an uncoated cell. The sensorgrams from these blank runs were then subtracted from those obtained with Fc-coupled chips. Dissociation constants (Kds) were determined by fitting the corresponding binding isotherms.
^a Affinity measurements were carried out by BIAcore as described in Materials and Methods. Errors were estimated as the standard deviations of 2 independent experiments for each interacting pair.
For orientation: In SPR one partner is held on a chip, and binding of the other changes the refractive index at the surface.

Assay [2] addresses T1, Human FcRn (soluble human neonatal Fc …). Put plainly: SPR (BIAcore 3000), ratio of steady-state Kd values, pH 6.0.
Text: as §1

T1 sequence (P55899 24-290 limits assumed, chain 1 of 2): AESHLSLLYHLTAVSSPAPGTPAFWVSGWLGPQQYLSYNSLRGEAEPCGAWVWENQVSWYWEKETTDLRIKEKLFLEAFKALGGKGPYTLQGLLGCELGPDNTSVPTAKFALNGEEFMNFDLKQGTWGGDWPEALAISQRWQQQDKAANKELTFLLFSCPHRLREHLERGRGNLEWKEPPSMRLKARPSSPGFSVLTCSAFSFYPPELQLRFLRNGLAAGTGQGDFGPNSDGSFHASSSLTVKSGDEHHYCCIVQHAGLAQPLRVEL
T1 sequence (P61769 21-119 limits assumed, chain 2 of 2): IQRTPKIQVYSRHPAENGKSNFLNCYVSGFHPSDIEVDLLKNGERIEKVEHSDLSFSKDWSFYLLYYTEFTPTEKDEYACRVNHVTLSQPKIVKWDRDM

B1: Fc/YTE (human IgG1 Fc fragment containing the M252Y/S254T/T256E triple substitution) (other)
chain: GGPSVFLFPPKPKDTLYITREPEVTCVVVDVSHEDPEVKFNWYVDGVEVHNAKTKPREEQYNSTYRVVSVLTVLHQDWLNGKEYKCKVSNKALPAPIEKTISKAKGQPREPQVYTLPPSREEMTKNQVSLTCLVKGFYPSDIAVEWESNGQPENNYKTTPPVLDSDGSFFLYSKLTVDKSRWQQGNVFSCSVMHEALHNHYTQKSLSLS
modifications: one branched N-linked carbohydrate chain attached to N297 (EU numbering)
notes: Fc portion (heavy chain residues 223-447, EU) of MEDI-524 with M252Y/S254T/T256E, expressed in HEK 293 cells; It consists of two chemically identical polypeptides with at least one interchain disulfide at C226 and/or C229; In the assay it was amine-coupled to a CM5 chip; also called human IgG Fc variant; YTE-modified human Fc
In assay [1], B1 returned a Kd of 72 nM. Moreover, the “fold higher binding affinity than the unmutated human Fc” value in assay [2] is about 8 fold.

(Values after patent publication US20110288276A1 (AstraZeneca / MedImmune, published 2011).)
